Measurements reported in IntAct's records for PubMed 21378754.

What was measured:
rab8a_human RAB8A [1] = molecular target: rab8a_human RAB8A (UniProt P61006)
rab8a_human RAB8A [2] = molecular target: rab8a_human RAB8A (UniProt P61006); remark: listed apart in the source
rab1b_human RAB1B = rab1b_human RAB1B (UniProt Q9H0U4)
rab6a_human RAB6A = rab6a_human RAB6A (UniProt P20340)
rab8a_human RAB8A [3] = molecular target: rab8a_human RAB8A (UniProt P61006); remark: listed apart in the source
rab5a_human RAB5A = rab5a_human RAB5A (UniProt P20339)
Sequence of rab5a_human RAB5A (P20339 whole entry): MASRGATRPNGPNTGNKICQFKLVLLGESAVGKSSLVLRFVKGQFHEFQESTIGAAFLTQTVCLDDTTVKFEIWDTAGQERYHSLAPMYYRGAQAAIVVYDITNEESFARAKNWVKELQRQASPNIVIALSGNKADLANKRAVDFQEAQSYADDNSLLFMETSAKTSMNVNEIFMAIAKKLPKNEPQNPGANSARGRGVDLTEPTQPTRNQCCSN

Sequence of rab8a_human RAB8A (P61006 whole entry): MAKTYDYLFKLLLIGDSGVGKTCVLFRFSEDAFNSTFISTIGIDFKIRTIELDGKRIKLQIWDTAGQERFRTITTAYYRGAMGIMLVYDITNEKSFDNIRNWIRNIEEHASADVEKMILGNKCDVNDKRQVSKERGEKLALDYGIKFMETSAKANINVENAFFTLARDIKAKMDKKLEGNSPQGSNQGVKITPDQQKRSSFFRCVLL
Sequence of Inositol polyphosphate 5-phosphatase OCRL (Homo sapiens), Q01968 F668V (Q01968 whole entry F668V): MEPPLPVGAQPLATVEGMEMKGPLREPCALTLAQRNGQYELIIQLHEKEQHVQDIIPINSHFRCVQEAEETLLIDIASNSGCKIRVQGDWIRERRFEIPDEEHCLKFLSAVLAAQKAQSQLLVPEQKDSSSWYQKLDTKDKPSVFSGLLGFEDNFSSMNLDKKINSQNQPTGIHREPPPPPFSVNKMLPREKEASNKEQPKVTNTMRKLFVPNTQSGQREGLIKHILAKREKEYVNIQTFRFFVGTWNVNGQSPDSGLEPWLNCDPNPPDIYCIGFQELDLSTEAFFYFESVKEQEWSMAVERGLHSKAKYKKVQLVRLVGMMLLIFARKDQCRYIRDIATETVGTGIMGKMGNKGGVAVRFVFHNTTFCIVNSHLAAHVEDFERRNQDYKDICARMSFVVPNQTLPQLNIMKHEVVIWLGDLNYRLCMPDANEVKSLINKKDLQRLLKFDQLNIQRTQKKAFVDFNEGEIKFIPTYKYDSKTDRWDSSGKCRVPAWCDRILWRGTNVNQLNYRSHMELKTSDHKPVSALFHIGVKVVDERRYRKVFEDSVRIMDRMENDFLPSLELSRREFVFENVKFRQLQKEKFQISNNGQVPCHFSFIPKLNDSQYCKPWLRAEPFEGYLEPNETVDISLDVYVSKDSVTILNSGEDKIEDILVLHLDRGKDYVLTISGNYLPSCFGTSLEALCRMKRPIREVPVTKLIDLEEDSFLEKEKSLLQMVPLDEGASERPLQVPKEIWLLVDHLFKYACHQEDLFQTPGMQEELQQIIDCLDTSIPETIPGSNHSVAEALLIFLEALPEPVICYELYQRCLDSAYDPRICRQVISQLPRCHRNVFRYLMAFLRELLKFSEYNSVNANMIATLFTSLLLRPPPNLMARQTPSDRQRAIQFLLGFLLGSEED
Sequence of Inositol polyphosphate 5-phosphatase OCRL (Homo sapiens), Q01968 F668A (Q01968 whole entry F668A): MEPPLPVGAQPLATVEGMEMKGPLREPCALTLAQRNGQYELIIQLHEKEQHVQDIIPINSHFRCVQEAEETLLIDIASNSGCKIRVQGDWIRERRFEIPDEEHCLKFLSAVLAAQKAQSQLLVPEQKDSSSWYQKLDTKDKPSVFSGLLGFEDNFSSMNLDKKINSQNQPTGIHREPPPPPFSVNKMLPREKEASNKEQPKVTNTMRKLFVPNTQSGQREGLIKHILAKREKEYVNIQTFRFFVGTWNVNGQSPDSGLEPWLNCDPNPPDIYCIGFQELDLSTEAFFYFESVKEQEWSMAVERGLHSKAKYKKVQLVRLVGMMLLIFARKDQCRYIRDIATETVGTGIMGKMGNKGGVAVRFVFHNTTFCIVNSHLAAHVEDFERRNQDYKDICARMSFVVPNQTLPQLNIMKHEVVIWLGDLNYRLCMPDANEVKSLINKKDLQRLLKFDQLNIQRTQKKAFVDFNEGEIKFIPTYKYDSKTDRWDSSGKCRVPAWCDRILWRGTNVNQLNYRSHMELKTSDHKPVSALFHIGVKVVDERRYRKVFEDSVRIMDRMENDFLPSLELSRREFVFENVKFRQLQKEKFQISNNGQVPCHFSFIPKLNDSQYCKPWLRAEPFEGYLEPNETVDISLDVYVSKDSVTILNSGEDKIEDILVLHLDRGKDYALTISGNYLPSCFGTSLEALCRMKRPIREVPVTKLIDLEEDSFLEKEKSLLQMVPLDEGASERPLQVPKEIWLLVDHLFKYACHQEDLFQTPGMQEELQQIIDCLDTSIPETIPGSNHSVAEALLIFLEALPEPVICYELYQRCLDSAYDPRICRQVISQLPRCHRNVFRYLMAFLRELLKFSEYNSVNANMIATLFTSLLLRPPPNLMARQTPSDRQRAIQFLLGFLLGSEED
Sequence of rab1b_human RAB1B (Q9H0U4 whole entry): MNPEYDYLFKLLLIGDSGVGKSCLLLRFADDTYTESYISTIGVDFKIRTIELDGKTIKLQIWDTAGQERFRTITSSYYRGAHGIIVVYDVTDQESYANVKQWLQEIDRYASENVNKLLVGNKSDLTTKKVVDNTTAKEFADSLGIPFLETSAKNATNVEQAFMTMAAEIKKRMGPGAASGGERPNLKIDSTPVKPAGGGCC
Sequence of rab6a_human RAB6A (P20340 whole entry, looked up): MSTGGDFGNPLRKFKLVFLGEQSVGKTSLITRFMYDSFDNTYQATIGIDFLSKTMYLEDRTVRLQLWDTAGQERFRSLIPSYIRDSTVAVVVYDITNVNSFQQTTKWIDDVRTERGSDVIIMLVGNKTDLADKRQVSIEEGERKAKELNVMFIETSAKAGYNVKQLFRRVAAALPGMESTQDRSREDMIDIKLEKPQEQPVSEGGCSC

effect of a mutation on the interaction (rab8a_human RAB8A [1]) | effect of a mutation on the interaction (rab8a_human RAB8A [2]) | effect of a mutation on the interaction (rab1b_human RAB1B) | effect of a mutation on the interaction (rab6a_human RAB6A) | effect of a mutation on the interaction (rab8a_human RAB8A [3]) | effect of a mutation on the interaction (rab5a_human RAB5A) | Substance
decreasing interaction | disrupting interaction | disrupting interaction | disrupting interaction | – | – | Inositol polyphosphate 5-phosphatase OCRL (Homo sapiens), Q01968 F668V
– | – | – | – | decreasing interaction | disrupting interaction | Inositol polyphosphate 5-phosphatase OCRL (Homo sapiens), Q01968 F668A
